In patent publication US20070184522A1, “Cell death modulation via antagonists of Fasl and Fas activation” (University of Pittsburgh of the Commonwealth System of …, priority 2004, published 2007):
Entries after “also recorded” stand apart in the source; their conditions may differ.

Columns and labels:
[1] = tested on: Fas capping in Hepa 1-6 cells; assay: Fas capping of fluorescent protein tagged Fas in Hepa 1-6 cells; format: cell-based; details: for FasL-induced Fas capping: Hepa 1-6, FasL 1 μg/ml, AlphaMet 5 μg/ml or YLGA 12 mer 1 μg/ml, 30 minutes; for Jo2-induced Fas capping/clustering: Hepa 1-6, Jo2 100 ng/ml
Experimental: FIG. 3a presents data collected from Jurkat cells (1×10^6) treated with 2 μg/ml of Fas Ligand with or without AlphaMet for 30 minutes on ice. Cells were washed with PBS twice and then incubated with 2 mM of DTSSP in PBS for 30 minutes. The crosslinking process was stopped by 20 mM of Tris (pH 7.5) for another 30 minutes. Cells were spun down and washed with PBS twice and lyzed in RIPA buffer. Cell lysates were subjected to SDS-PAGE under non-reducing or reducing conditions (FIG. 3b) and Western blot analysis using the mouse monoclonal antibody against human Fas. FIG. 3c depicts the quantification of the data in FIG. 3a by densitometry. The data are the mean and SE from three different independent crosslinking and Western blot experiments. […] Frame A: Acceptor CFP-Fas image; Frame B: Acceptor pre-bleach CFP-Fas image; Frame C: Acceptor post-bleach image. Frame D: Donor YFP-Fas image; Frame E: Donor pre-bleach image; Frame F: […]. The CFP-Fas strength in the selected region obtained a gain of 19.3% efficiency in the presence of FasL for 15 minutes. No FRET was observed without FasL. […] FIG. 3e depicts the results of experiments in which CFP-tagged Fas or CFP control vector were transiently expressed in Hepa 1-6 Cells (3×10^5). Cells were treated with 1 μg/ml of Fas ligand or 100 ng/ml of Jo2 with or without 5 μg/ml of AlphaMet or 1 μg/ml of YLGA 12 mer for 30 minutes on ice. Cells were fixed and analyzed by fluorescence microscopy. Frame A: AlphaMet treatment only, no FasL; Frame B: Fas ligand treatment only; Frame C: Fas ligand and AlphaMet treatment; Frame D: Fas ligand and 12 mer YLGA; Frame E: Jo2 treatment only and Frame F: Jo2 and AlphaMet treatment.
Fluorescence protein tagged Fas molecules and Hepa 1-6 cells were used for these experiments. These cells were transiently co-transfected with CFP and YFP chimeric Fas expression vectors using the lipofectamine 2000 method (Invitrogen). After 24 hours of transfection, about 50% of the cells were fluorescing. The cells were treated by Fas-ligand in the presence or absence of AlphaMet for 30 minutes. Treated cells were then fixed with cold methanol and subjected to FRET analysis. Cells were considered positive if FRET efficiency was over 10%. FRET phenomenon was observed only in cells that were treated with Fas-ligand. […] In these experiments the percent of Fas capping was also determined.

Jurkat cells = assay: Fas-ligand induced apoptosis in Jurkat cells (Trypan Blue, flow cytometry); format: cell-based, human
Experimental: For FIG. 4a, Jurkat cells (1.5×10^5) were overnight treated in triplicate with 5 ng/ml of crosslinked human Fas ligand with or without 5 μg/ml of recombinant AlphaMet or 1 μg/ml of the indicated polypeptides. Percent apoptosis was determined by Trypan Blue staining using a hemocytometer. The data are representative and were repeated at least four times. […] The 17 kDa fragment of cleaved Caspase 3 is visualized by this antibody. The blot was reprobed for β-actin as a loading control. For FIG. 4c, serum deprived Hepa 1-6 cells (3×10^5) were overnight treated with 1 μg/ml of crosslinked mouse Fas ligand with or without AlphaMet or the indicated polypeptide. Media were collected and centrifuged to pellet the dead cells. […] The data in FIG. 4c represents three independent experiments.
Apoptosis assay. Pre-washed Jurkat cells in RPMI 1640 medium containing 1% FBS were inoculated in 96-wells at a density of 10^5 cells per well. Apoptosis was induced by cross-linked human Fas-ligand (R&D Systems) at a concentration of 0.5 ng/ml or Anti-Fas (human, activating) clone CH11 (Upstate biotechnology) at a concentration of 500 ng /ml. Hepa 1-6 cells were overnight starved before induction of apoptosis. The apoptosis in Hepa 1-6 was induced by anti-mouse Fas antibody Jo2 (200 ng/ml) or human recombinant Fas-ligand. The extent of cell viability and apoptosis was determined by several methods such as Trypan Blue stain, flow cytometry, LDH assay, and Hoechst staining.

| Molecule | FasL-induced Fas capping [1] | Jo2-induced Fas capping/clustering [1] | death rate (Jurkat cells; Fas-ligand overnight, AlphaMet 5 μg/ml, Trypan Blue) [%] | sub-G1 (apoptotic) population (Jurkat cells; Propidium Iodide flow cytometry, Fas-ligand) [%] |
| --- | --- | --- | --- | --- |
| HHIYLGATNYIY [12 mer] | inhibited to the background level | reduced Jo2-induced Fas capping |  |  |
| alpha subunit of Met (AlphaMet), amino acid residues 1 to 306, His-tagged (receptor, mouse) MKAPTVLAPGILVLLLSLVQRSHGECKEALVKSEMNVNMKYQLPNFTAETPIQNVVLHGHHIYLGATNYIYVLNDKDLQKVSEFKTGPVLEHPDCLPCRDCSSKANSSGGVWKDNINMALLVDTYYDDQLISCGSVNRGTCQRHVLPPDNSADIQSEVHCMFSPEEESGQCPDCVVSALGAKVLLSEKDRFINFFVGNTINSSYPPGYSLHSISVRRLKETQDGFKFLTDQSYIDVLPEFLDSYPIKYIHAFESNHFIYFLTVQKETLDAQTFHTRIIRFCSVDSGLHSYMEMPLECILTEKRRKRHHHHHH | inhibited to the background level | also inhibited; also recorded: reduced Jo2-induced Fas capping | 12 | 8 |
